Test results as given in US20090130105A1 (Biogen, published 2009).

What was measured:
sIGF-1R(1-903) [1] = biological target: T1, sIGF-1R(1-903) (human, UniProt P08069 31-933); experiment: equilibrium solution-phase SPR, free sIGF-1R(1-903) read on C06 surface
T1 construct: also called soluble IGF-1R ectodomain

sIGF-1R(1-903) [2] = biological target: T1, sIGF-1R(1-903); experiment: ITC, 25 °C; footnote a: affinity too high for accurate measurement
Experimental: Isothermal Titration Calorimetry (ITC). […] The reagents were co-dialyzed against PBS, pH 7.2. The protein solutions were adjusted to the concentrations listed above by dilution using PBS dialysate. […] The protein solutions were prepared as described above for the MAb binding experiments. All ITC experiments were performed on an ITC₂₀₀ microcalorimeter (MicroCal, LLC) at 25° C. […] IGF-1R bispecific antibodies. A four minute equilibration period was used between all injections with an initial delay of 60 seconds. Numerical integration of the data was performed using the ITC data analysis software supplied by MicroCal (Origin). ΔHA° (T) values were calculated based on the difference between the average heat liberated/absorbed during the binding phase of the injections and the average heat of dilution found once the receptor, IGF-1R, was saturated with MAb or BsAb.

human IGF-1R(1-903)-Fc [3] = biological target: T2, human IGF-1R(1-903)-Fc (human, UniProt P08069 31-933); experiment: IGF-1 blocking ELISA at 320 nM IGF-1 His on biotinylated hIGF-1R-Fc
T2 construct: also called hIGF-1R-Fc; SDWT; not shown: human IgG1 Fc, C-terminal tag
Experimental: (§1) The dilutions were added to the plates in duplicate at 100 μL/well and the plates were incubated at RT for 1 hour. The plates were then washed four times with 200 μL/well PBST. An HRP-conjugated anti-Histag antibody (Penta-His HRP Conjugate, QIAGEN, Cat. No. 1014992) was diluted 1:1000 in PBST and added to plates at 100 μL/well, and the plates were incubated at RT for one hour. The plates were then washed four times with 200 μL/well PBST. SureBlue Reserve TMB Microwell Peroxidase Substrate (KPL, Cat. No. 53-00-01) was added to plates at 100 μL/well followed by 1% phosphoric acid at 100 μL/well once the desired reaction was observed. The absorbance of each well was determined at 450 nm, and the results were normalized and plotted against the log of antibody concentration.
(§2) Ligand Blocking Properties.

human IGF-1R(1-903)-Fc [4] = biological target: T2, human IGF-1R(1-903)-Fc; experiment: IGF-1 blocking ELISA at 80 nM IGF-1 His on biotinylated hIGF-1R-Fc
Experimental: as §1, §2

human IGF-1R(1-903)-Fc [5] = biological target: T2, human IGF-1R(1-903)-Fc; experiment: ELISA, blocking of 320 nM IGF-1 His on biotinylated hIGF-1R-Fc
Experimental: as §1, with “hIGF-1R-Fc was biotinylated using EZ-Link Sulfo-NHS-LC-Biotin according to the protocol provided by the manufacturer (Pierce Cat. No. 21335). Biotinylated human IGF-1R Fc (NB12453-9) at 5 μg/ml was added to the wells of SigmaScreen streptavidin-coated 96-well plates (Sigma, Cat. No. M5432-5EA) at 100 μL/well and incubated overnight at 2-8° C. The plates were then washed four times with 200 μL/well PBST. […] The dilutions” for “The dilutions”

[6] = biological target: T3, hIGF-1R-Fc mutant SD104 (H464A) (human, UniProt P08069 31-933); experiment: SPR, Fab over captured mutant
T3 construct: not shown: human IgG1 Fc, C-terminal tag
Experimental: (§3) Surface plasmon resonance (SPR) experiments were performed on a Biacore 3000 instrument set to 25° C. […] The antibody sensorchip surfaces were prepared by injecting each antibody (diluted 100 μg/mL in 10 mM Acetate, pH 4.0) over EDC/NHS-activated sensorchip surfaces according to the standard protocol of the manufacturer. […] Both hIGF-1R-Fc and mIGF-1R-Fc proteins oligomerize due to the incorporation of two separate homodimeric regions (IGF-1R and IgG1-Fc). […] After, completion of the receptor-Fc loading step, flow rates were elevated to 5 μl/min. […] Dissociation was measured for 7 minutes after the antibody injections were complete. Finally, the flow rate was elevated to 30 μL/min and the chip surfaces were regenerated by 2×10 μL injections of 0.1 M glycine, pH 2.

[7] = biological target: T4, hIGF-1R-Fc mutant SD109 (Y482A, R483W) (human, UniProt P08069 31-933); experiment: SPR, Fab over captured mutant
T4 construct: not shown: human IgG1 Fc, C-terminal tag
Experimental: as §3

[8] = biological target: T5, hIGF-1R-Fc mutant SD103 (D461A, V462T) (human, UniProt P08069 31-933); experiment: SPR, Fab over captured mutant
T5 construct: not shown: human IgG1 Fc, C-terminal tag
Experimental: as §3

[9] = biological target: T6, hIGF-1R-Fc mutant SD113 (E570A, I571T) (human, UniProt P08069 31-933); experiment: SPR, Fab over captured mutant
T6 construct: not shown: human IgG1 Fc, C-terminal tag
Experimental: as §3

[10] = biological target: T7, hIGF-1R-Fc mutant SD102 (E459A, S460A) (human, UniProt P08069 31-933); experiment: SPR, Fab over captured mutant
T7 construct: not shown: human IgG1 Fc, C-terminal tag
Experimental: as §3

[11] = biological target: T8, hIGF-1R-Fc mutant SD108 (H480E) (human, UniProt P08069 31-933); experiment: SPR, Fab over captured mutant
T8 construct: not shown: human IgG1 Fc, C-terminal tag
Experimental: as §3

T2 sequence (P08069 31-933): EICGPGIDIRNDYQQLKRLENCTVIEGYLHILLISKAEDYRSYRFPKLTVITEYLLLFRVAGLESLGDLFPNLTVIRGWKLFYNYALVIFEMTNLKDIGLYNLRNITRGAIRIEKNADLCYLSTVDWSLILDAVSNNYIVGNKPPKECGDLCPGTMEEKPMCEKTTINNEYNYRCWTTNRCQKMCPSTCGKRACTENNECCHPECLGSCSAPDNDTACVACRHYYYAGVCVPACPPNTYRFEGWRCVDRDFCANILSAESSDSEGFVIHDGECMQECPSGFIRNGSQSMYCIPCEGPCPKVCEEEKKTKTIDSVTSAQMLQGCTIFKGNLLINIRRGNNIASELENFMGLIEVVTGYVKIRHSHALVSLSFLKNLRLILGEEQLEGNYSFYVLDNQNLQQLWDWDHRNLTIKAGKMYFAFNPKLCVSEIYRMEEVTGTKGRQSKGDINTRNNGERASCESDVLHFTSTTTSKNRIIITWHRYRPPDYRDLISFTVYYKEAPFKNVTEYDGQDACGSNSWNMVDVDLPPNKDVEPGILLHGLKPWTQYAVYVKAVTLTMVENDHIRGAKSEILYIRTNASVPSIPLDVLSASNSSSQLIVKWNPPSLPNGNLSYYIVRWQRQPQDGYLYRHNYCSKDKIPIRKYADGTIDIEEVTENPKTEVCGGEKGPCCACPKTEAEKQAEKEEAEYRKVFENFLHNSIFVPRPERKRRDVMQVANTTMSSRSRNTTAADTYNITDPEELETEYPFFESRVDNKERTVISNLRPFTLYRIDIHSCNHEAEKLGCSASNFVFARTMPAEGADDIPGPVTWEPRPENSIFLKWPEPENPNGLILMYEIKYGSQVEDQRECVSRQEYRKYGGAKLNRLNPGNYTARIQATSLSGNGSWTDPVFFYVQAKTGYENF
T1 sequence (P08069 31-933): as above
T3 sequence (P08069 31-933 H494A): as the sequence (P08069 31-933) above, with H464A counted along it
T5 sequence (P08069 31-933 D491A/V492T): as the sequence (P08069 31-933) above, with D461A, V462T counted along it
T6 sequence (P08069 31-933 E600A/I601T): as the sequence (P08069 31-933) above, with E570A, I571T counted along it
T7 sequence (P08069 31-933 E489A/S490A): as the sequence (P08069 31-933) above, with E459A, S460A counted along it
T4 sequence (P08069 31-933 Y512A/R513W): as the sequence (P08069 31-933) above, with Y482A, R483W counted along it
T8 sequence (P08069 31-933 H510E): as the sequence (P08069 31-933) above, with H480E counted along it

| Kd (sIGF-1R(1-903) [1]) | n (#C06 specific binding sites) (sIGF-1R(1-903) [1]) | -TΔS (sIGF-1R(1-903) [2]) | Kd (sIGF-1R(1-903) [2]) | ΔG (sIGF-1R(1-903) [2]) | IC50 (read off the curve) (human IGF-1R(1-903)-Fc [3]) | IC50 (read off the curve) (human IGF-1R(1-903)-Fc [4]) | IC50 (human IGF-1R(1-903)-Fc [5]) | binding result [6] | binding result [7] | binding result [8] | binding result [9] | binding result [10] | binding result [11] | Binder |
| --- | --- | --- | --- | --- | --- | --- | --- | --- | --- | --- | --- | --- | --- | --- |
| 0.1 nM | 1 | 10.6 kcal/mol | ≤ 5 nM | -11.3 kcal/mol | ~1 nM | ~1 nM | 1.3 nM |  |  |  |  |  |  | M13-C06 antibody (antibody, V domains shown, Fully human full-length antibody (ATCC PTA-7444); also called M13.C06.G4.P.agly; M13-C06.G4P.agly) VH: EVQLLESGGGLVQPGGSLRLSCAASGFTFSIYRMQWVRQAPGKGLEWVSGISPSGGTTWYADSVKGRFTISRDNSKNTLYLQMNSLRAEDTAVYYCARWSGGSGYAFDIWGQGTMVTVSS VL: DIQMTQSPLSLSASVGDRVTITCQASRDIRNYLNWYQQKPGKAPKLLIYDASSLQTGVPSRFGGSGSGTDFSFTIGSLQPEDIATYYCQQFDSLPHTFGQGTKLEIK |
| 0.6 nM | 2 |  |  |  |  |  |  | no binding (tested: up to 10 nM Fab) | no binding (tested: up to 10 nM Fab) | no binding (tested: up to 10 nM Fab) | no binding (tested: up to 10 nM Fab) | no binding (tested: up to 10 nM Fab) | no binding (tested: up to 10 nM Fab) | M13-C06 Fab (Fab, V domains shown, Fab made by enzymatic digestion of the IgG) VH: EVQLLESGGGLVQPGGSLRLSCAASGFTFSIYRMQWVRQAPGKGLEWVSGISPSGGTTWYADSVKGRFTISRDNSKNTLYLQMNSLRAEDTAVYYCARWSGGSGYAFDIWGQGTMVTVSS VL: DIQMTQSPLSLSASVGDRVTITCQASRDIRNYLNWYQQKPGKAPKLLIYDASSLQTGVPSRFGGSGSGTDFSFTIGSLQPEDIATYYCQQFDSLPHTFGQGTKLEIK |
